Results published in patent publication US7026283.

What was measured:
[1] = molecular target: rat FcεRI (high affinity IgE receptor) on RBL-2H3 cells (rat) (UniProt P12371); test: FACS on RBL-2H3 cells; FITC-conjugated IgE after preincubation with saturating unconjugated 1A12 (competitor); details: scale: mCi
[2] = molecular target: rat FcεRI (high affinity IgE receptor) on RBL-2H3 cells (rat) (UniProt P12371); test: FACS on RBL-2H3 cells; FITC-conjugated IgE after preincubation with saturating unconjugated AA4 (anti-ganglioside Gd1b, competitor); details: scale: mCi
[3] = molecular target: rat FcεRI (high affinity IgE receptor) on RBL-2H3 cells (rat) (UniProt P12371); test: FACS on RBL-2H3 cells; FITC-conjugated IgE after preincubation with saturating unconjugated BC4 (competitor); details: scale: mCi
[4] = molecular target: rat FcεRI (high affinity IgE receptor) on RBL-2H3 cells (rat) (UniProt P12371); test: FACS on RBL-2H3 cells; FITC-conjugated IgE at a subsaturating concentration, no preincubation; details: scale: mCi
[5] = molecular target: rat FcεRI (high affinity IgE receptor) on RBL-2H3 cells (rat) (UniProt P12371); test: FACS on RBL-2H3 cells; FITC-conjugated IgE after preincubation with saturating unconjugated 5.14 (competitor); details: scale: mCi
[6] = molecular target: rat FcεRI (high affinity IgE receptor) on RBL-2H3 cells (rat) (UniProt P12371); test: FACS on RBL-2H3 cells; FITC-conjugated IgE after preincubation with saturating unconjugated 3A9 (competitor); details: scale: mCi
[7] = molecular target: rat FcεRI (high affinity IgE receptor) on RBL-2H3 cells (rat) (UniProt P12371); test: FACS on RBL-2H3 cells; FITC-conjugated IgE after preincubation with saturating unconjugated 4H7 (competitor); design: unit not given here

Question: IgE (antibody) was tested. Which Median Fluorescence Intensity [1] did it give?
Answer: Its Median Fluorescence Intensity is 61.

Question: And the Median Fluorescence Intensity [2]?
Answer: Its Median Fluorescence Intensity is 12.3.

Question: What about the Median Fluorescence Intensity [3] of the same substance?
Answer: The Median Fluorescence Intensity was 5.8.

Question: What about the Median Fluorescence Intensity [4] of the same substance?
Answer: The Median Fluorescence Intensity was 75.

Question: And the Median Fluorescence Intensity [5]?
Answer: The Median Fluorescence Intensity was 5.5.

Question: And the Median Fluorescence Intensity [6]?
Answer: Its Median Fluorescence Intensity is 6.5.

Question: What about the Median Fluorescence Intensity [7] of the same substance?
Answer: Its Median Fluorescence Intensity is 6.4.
